According to the Human Domainome abundance scans (Beltran et al. 2025):

B1: Homeobox protein cut-like 1, residues 548 to 629; numbered along this chain, P39880 (parent)
chain: GEEMDTAEIARQVKEQLIKHNIGQRIFGHYVLGLSQGSVSEILARPKPWNKLTVRGKEPFHKMKQFLSDEQNILALRSIQGR
B2: Activity-dependent neuroprotector homeobox protein, residues 770 to 810; numbered along this chain, Q9H2P0 (parent)
chain: FLTKYFNKQPYPTRREIEKLAASLWLWKSDIASHFSNKRKK

Variants of: B1
Assay: abundance fitness (aPCA) (normalised: wild type 0, dead -1); higher = more abundant; growth selection in yeast, the domain comes from the species named
Conditions: Homo sapiens

Abundance fitness, by site and new letter:
E2: F -0.107; D -0.154; A -0.121; C -0.137; G -0.145; H -0.256
G1: P -0.044; H -0.289; Y 0.075; C -0.026; V -0.01; Q -0.051; T -0.035; F -0.104; R -0.041; L -0.03; K -0.035; N -0.012; E -0.036; W -0.172; I 0.049; M 0.038; S -0.004; D 0.029; A -0.064

Variants of: B2
Assay: as above
Conditions: Homo sapiens

Abundance fitness, by site and new letter:
K38: C -0.193; Q -0.216; S -0.183; F -0.269; Y -0.433; E -0.327; T -0.229; A -0.167; L -0.197; I -0.182; H -0.112; G -0.09; P -0.206; R -0.115; W -0.242; V -0.119; N -0.298
S33: Q -0.033; L -0.154; R 0.032; Y -0.381; V -0.276; T -0.076; N -0.284; W -0.147; M -0.061; P -0.01
F35: N -0.205; M 0.004; I -0.208; L -0.023; S -0.156; H -0.237; T -0.229; A -0.119; P -0.231; D -0.157; V -0.063; Y -0.235; Q -0.238; C -0.347; E -0.068; G -0.112; K -0.211
S36: Q -0.085; G 0.083; I -0.091; D -0.159; R 0.087; H 0.01; F -0.055; L -0.316; T 0.059; A -0.049; M -0.037; V -0.262; Y -0.37; C -0.006; K 0.051; E -0.395; P -0.047; W -0.177
R39: W 0.009; E -0.249; A -0.076; M 0.134; G -0.195; I -0.035; P -0.232; F -0.157; S -0.085; C -0.189; V -0.185; Q -0.195; N -0.012; L 0.031
H34: P -0.01; T -0.128; C 0.069; N -0.107; Y -0.151; D -0.388; G -0.043; Q -0.032; S -0.02; R -0.085; V 0.117; A 0.006; K 0.022; E -0.275; M 0.043; I 0.068
K41: W 0.259; C -0.261; M 0.082; N -0.15; L -0.4; D -0.015; V -0.309; I -0.277; Q 0.153; A -0.319; G -0.135; E -0.092; P -0.188; R -0.092; T -0.128; H -0.214; Y -0.378
K40: T 0.009; L -0.352; A -0.013; N -0.425; M -0.069; E -0.278; F -0.098; S -0.259; C -0.097; V -0.461; I -0.27; W -0.137; R -0.156; D -0.253; P -0.28; G -0.06
N37: E -0.142; T -0.077; V -0.091; A -0.093; Q -0.141; W 0.023; M 0.013; L 0.061; R -0.081; S -0.019; K 0.131; C -0.002; F -0.044; G 0.022; P -0.107; H -0.072; I 0.028
